The values below come from publication PMC11804868.

A word on the stoichiometry N: it is the number of molecules, sites or subunits per partner or assembly.

Experiment [1] deals with TylG5 TE wild type (thioesterase domain of the tylosin polyketide synthase TylG5) (Streptomyces fradiae). Description: SEC.
For experiment [2], the target named is DEBSIII TE wild type (thioesterase domain of the erythromycin polyketide synthase DEBSIII) (Saccharopolyspora erythrea). Description: SEC. On the technique in general: SEC sorts molecules by how far they enter the pores of the column.

Substance “TylG5 TE wild type (thioesterase domain of the tylosin polyketide synthase TylG5) (domain or fragment)” gave a stoichiometry N in experiment [1] of 2.

Regarding “DEBSIII TE wild type (thioesterase domain of the erythromycin polyketide synthase DEBSIII) (domain or fragment)”, in experiment [2], the stoichiometry N worked out at 2.
